Reference: patent US20180155413A1 (AstraZeneca / MedImmune, published 2018)
Read-outs that look alike come from different tables or passages of the source.

How the values were obtained:
Test in all cases: cell-based or functional assay
[1] = molecular target: HA of A/Hong Kong/8/68 (H3N2) (influenza A virus)
[2] = molecular target: HA of A/California/07/2009 (H1N1) (influenza A virus)
[3] = molecular target: HA of A/Wilson Smith N/33 (H1N1) (influenza A virus, UniProt P03454 18-565)
[4] = molecular target: HA of A/Beijing/262/95 (H1N1) (influenza A virus)
[5] = molecular target: HA of B/Florida/4/2006 (yamagata) (influenza B virus)
[6] = molecular target: HA of B/Hong Kong/330/2001 (victoria) (influenza B virus)
[7] = molecular target: HA of A/Solomon Island/3/2006 (H1N1) (influenza A virus)
[8] = molecular target: HA of ca B/Beijing/243/97 (victoria) (influenza B virus)
[9] = molecular target: HA of A/California/07/2009 (H1N1) (influenza A virus); remark: listed apart in the source
[10] = molecular target: HA protein derived from A/Hong Kong/8/68 H3N2, on stably transfected MDCK cells (influenza A virus)
[11] = molecular target: HA of ca B/Brisbane/60/2008 (victoria) (influenza B virus)
[12] = molecular target: HA of B/Florida/4/2006 (yamagata) (influenza B virus); remark: listed apart in the source
[13] = molecular target: HA of B/Shanghai/361/02 (yamagata) (influenza B virus)
[14] = molecular target: HA of B/Yamanashi/166/98 (yamagata) (influenza B virus)
[15] = molecular target: HA of B/Ohio/1/2005 (victoria) (influenza B virus)
[16] = molecular target: HA of ca B/Beijing/243/97 (victoria) (influenza B virus); remark: listed apart in the source
[17] = molecular target: HA of B/Sichuan/379/99 (yamagata) (influenza B virus)
[18] = molecular target: HA of B/Malaysia/2506/2004 (victoria) (influenza B virus)
[19] = molecular target: HA of B/Wisconsin/1/2010 (yamagata) (influenza B virus)
[20] = molecular target: HA of A/Hong Kong/2212/2010 (H1N1) (influenza A virus)
[21] = molecular target: HA of B/Phuket/3073/2013 (yamagata) (influenza B virus)
[22] = molecular target: HA of ca B/Brisbane/60/2008 (victoria) (influenza B virus); remark: listed apart in the source
[23] = molecular target: HA of A/New York/39/2012 (H3N2) (influenza A virus)
[24] = molecular target: HA of B/Yamagata/16/88 (yamagata) (influenza B virus)
[25] = molecular target: HA of B/Arizona/8/2013 (yamagata) (influenza B virus)
[26] = molecular target: HA of B/Florida/4/2006 (yamagata) (influenza B virus); remark: listed apart in the source
[27] = molecular target: HA of B/Hong Kong/330/2001 (victoria) (influenza B virus); remark: listed apart in the source
[28] = molecular target: HA of ca B/Ann Arbor/1/66 (influenza B virus)
[29] = molecular target: HA of B/Yamanashi/166/98 (yamagata) (influenza B virus); remark: listed apart in the source
[30] = molecular target: HA of B/Ohio/1/2005 (victoria) (influenza B virus); remark: listed apart in the source
[31] = molecular target: HA of ca B/Beijing/243/97 (victoria) (influenza B virus); remark: listed apart in the source
[32] = molecular target: HA of ca B/Victoria/504/2000 (yamagata) (influenza B virus)
HA of B/Hong Kong/5/72 = HA of B/Hong Kong/5/72 (influenza B virus)
HA of B/Lee/40 = HA of B/Lee/40 (influenza B virus, UniProt P03460 16-584)
[33] = molecular target: HA of B/Nevada/3/2011 (victoria) (influenza B virus)
[34] = molecular target: HA of ca A/chicken/Hong Kong/G9/97 (H9N2) (influenza A virus)
[35] = molecular target: HA of B/New Jersey/01/2012 (victoria) (influenza B virus)
[36] = molecular target: HA of B/Wisconsin/5/2013 (victoria) (influenza B virus)
[37] = molecular target: HA of B/Sichuan/379/99 (yamagata) (influenza B virus); remark: listed apart in the source
[38] = molecular target: HA of B/Malaysia/2506/2004 (victoria) (influenza B virus); remark: listed apart in the source
[39] = molecular target: HA of B/Texas/2/2013 (victoria) (influenza B virus)
[40] = molecular target: HA of ca B/Georgia/02/98 (yamagata) (influenza B virus)

HA of A/Wilson Smith N/33 (H1N1), sequence (P03454 18-565 limits assumed): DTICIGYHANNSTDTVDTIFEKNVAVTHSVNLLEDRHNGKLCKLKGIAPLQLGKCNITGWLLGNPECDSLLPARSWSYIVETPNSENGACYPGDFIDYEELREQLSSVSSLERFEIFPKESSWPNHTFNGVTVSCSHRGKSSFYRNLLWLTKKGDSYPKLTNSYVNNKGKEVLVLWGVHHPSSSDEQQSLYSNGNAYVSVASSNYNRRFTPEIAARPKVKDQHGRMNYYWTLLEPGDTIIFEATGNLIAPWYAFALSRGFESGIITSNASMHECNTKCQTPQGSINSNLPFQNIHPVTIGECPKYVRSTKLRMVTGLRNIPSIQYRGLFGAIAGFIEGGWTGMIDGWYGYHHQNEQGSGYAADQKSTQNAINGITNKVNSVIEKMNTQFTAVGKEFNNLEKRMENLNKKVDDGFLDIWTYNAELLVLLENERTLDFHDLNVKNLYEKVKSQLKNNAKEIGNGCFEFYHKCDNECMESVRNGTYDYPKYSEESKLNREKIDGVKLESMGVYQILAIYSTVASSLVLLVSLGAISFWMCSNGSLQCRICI
HA of B/Lee/40, sequence (P03460 16-584 limits assumed): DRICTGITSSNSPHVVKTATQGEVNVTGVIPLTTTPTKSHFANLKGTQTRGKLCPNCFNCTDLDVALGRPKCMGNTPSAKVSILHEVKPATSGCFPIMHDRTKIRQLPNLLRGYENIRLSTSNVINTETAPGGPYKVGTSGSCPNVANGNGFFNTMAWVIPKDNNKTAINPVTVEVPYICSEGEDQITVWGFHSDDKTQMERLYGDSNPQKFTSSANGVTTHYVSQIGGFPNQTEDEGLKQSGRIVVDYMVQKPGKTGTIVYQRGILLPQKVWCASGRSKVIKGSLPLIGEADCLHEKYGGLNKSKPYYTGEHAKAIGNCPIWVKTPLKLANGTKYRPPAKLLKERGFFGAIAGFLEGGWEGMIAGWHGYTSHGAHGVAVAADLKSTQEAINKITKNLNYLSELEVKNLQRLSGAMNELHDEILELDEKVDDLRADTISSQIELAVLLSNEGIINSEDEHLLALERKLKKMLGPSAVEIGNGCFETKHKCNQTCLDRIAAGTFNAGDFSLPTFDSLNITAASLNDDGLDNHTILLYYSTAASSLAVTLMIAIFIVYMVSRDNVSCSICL

B1: GL20 IgG (antibody, V domains shown)
VH: QVQLQQSGPGLVKPSQTLSLTCAISGDSVSSYNAVWNWIRQSPSRGLEWLGRTYYRSGWYNDYAESVKSRITINPDTSKNQFSLQLNSVTPEDTAVYYCARSGHITVFGVNVDAFDMWGQGTMVTVSS
VL: DIQMTQSPSSLSASVGDRVTITCRTSQSLSSYTHWYQQKPGKAPKLLIYAASSRGSGVPSRFSGSGSGTDFTLTISSLQPEDFATYYCQQSRTFGQGTKVEIK
Q: Which results are given for B1?
A: ADCC: NK cell killing of infected A549 cells (LDH release), IC50 [1]: 0.018 nM; ADCC: NK cell killing of infected A549 cells (LDH release), IC50 [2]: 0.024 nM; Neutralization (IC50) [3]: 13 nM; Neutralization (IC50) [4]: 8.3 nM; Neutralization (IC50) [5]: > 1000 nM; Neutralization (IC50) [6]: > 1000 nM; Neutralization (IC50) [7]: 4.4 nM; Neutralization (IC50) [8]: > 1000 nM; Neutralization (IC50) [9]: 18.6 nM; EC50 (read off the curve), ADCP % double positive [10]: ~0.04 nM

B2: GL20/39 BiS4 100/44 (bispecific antibody)
light: DIQMTQSPSSLSASVGDRVTITCRTSQSLSSYTHWYQQKPGKAPKLLIYAASSRGSGVPSRFSGSGSGTDFTLTISSLQPEDFATYYCQQSRTFGQGTKVEIKRTVAAPSVFIFPPSDEQLKSGTASVVCLLNNFYPREAKVQWKVDNALQSGNSQESVTEQDSKDSTYSLSSTLTLSKADYEKHKVYACEVTHQGLSSPVTKSFNRGEC
heavy: not shown
Q: Which results are given for B2?
A: Hemagglutination Inhibition Titer [11]: 244 nM; Hemagglutination Inhibition Titer [12]: 61 nM; Hemagglutination Inhibition Titer [13]: 91 nM; Hemagglutination Inhibition Titer [14]: 122 nM; Hemagglutination Inhibition Titer [15]: 244 nM; Hemagglutination Inhibition Titer [16]: 91 nM; Hemagglutination Inhibition Titer [17]: 122 nM; Hemagglutination Inhibition Titer [18]: 244 nM; Neutralization (IC50) [3]: 16.3 nM; Neutralization (IC50) [4]: 11.9 nM; Neutralization (IC50) [5]: 3.6 nM; Neutralization (IC50) [6]: 75.8 nM; Neutralization (IC50) [7]: 4.7 nM; Neutralization (IC50) [8]: 44.3 nM; Neutralization (IC50) [9]: 20.6 nM; Neutralization (IC50) [19]: 4.4 nM; Neutralization (IC50) [20]: 0.4 nM; Neutralization (IC50) [21]: 15.4 nM; Neutralization (IC50) [22]: 51.8 nM; Neutralization (IC50) [23]: 0.5 nM; Neutralization (IC50) [24]: 1.3 nM; Neutralization (IC50) [25]: 2.2 nM; Neutralization (IC50) [26]: 1.4 nM; Neutralization (IC50) [27]: 66.9 nM; Neutralization (IC50) [28]: 12.8 nM; Neutralization (IC50) [29]: 0.3 nM; Neutralization (IC50) [30]: 18.7 nM; Neutralization (IC50) [31]: 25.9 nM; Neutralization (IC50) [32]: 1.3 nM; Neutralization (IC50) (HA of B/Hong Kong/5/72): 5.7 nM; Neutralization (IC50) (HA of B/Lee/40): 1 nM; Neutralization (IC50) [33]: 38.2 nM; Neutralization (IC50) [34]: 1.6 nM; Neutralization (IC50) [35]: 23 nM; Neutralization (IC50) [36]: 14.5 nM; Neutralization (IC50) [37]: 12.1 nM; Neutralization (IC50) [38]: 33 nM; Neutralization (IC50) [39]: 13.8 nM; Neutralization (IC50) [40]: 1 nM
